From publication PMC4786428, “Recombinational branch migration by the RadA/Sms paralog of RecA in Escherichia coli”

Target: T1, RadA S372A (Escherichia coli, UniProt P24554 1-460, S372A)
T1 sequence: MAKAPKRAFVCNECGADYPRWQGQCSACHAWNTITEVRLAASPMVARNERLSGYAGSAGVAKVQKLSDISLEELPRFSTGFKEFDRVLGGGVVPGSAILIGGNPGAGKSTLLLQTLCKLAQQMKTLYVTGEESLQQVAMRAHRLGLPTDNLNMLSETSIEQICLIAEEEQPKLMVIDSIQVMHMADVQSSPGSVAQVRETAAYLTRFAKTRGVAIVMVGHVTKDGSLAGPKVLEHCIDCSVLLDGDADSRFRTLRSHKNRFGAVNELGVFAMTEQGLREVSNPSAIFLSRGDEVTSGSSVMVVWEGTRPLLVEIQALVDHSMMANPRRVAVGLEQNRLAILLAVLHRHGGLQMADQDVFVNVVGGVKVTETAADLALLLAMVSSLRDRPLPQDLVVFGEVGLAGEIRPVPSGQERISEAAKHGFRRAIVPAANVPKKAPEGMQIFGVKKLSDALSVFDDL
Assay: EMSA; 1 mM ADP; retains DNA binding; 50 mM Tris-HCl pH 7.5, 10 mM MgCl2, 0.1 mM EDTA, 75 mM NaCl, 5 mM DTT, 100 ug/ml BSA, 1 mM nucleotide, 100 fmol DNA, 37 C for 20-30 min; 6% TBE polyacrylamide gel at room temperature
Conditions: protein: recombinant; tags: eXact tag cleaved; 2 extra N-terminal residues Thr-Ser remain; chain copies: 6

TTTTTTTTTTTTTTTTTTTTTTTTTTTTTT (ssDNA) [poly(dT)30]: binds.
